In paper PMC6358683 (Proceedings of the National Academy of Sciences of the …, 2019):

How the values were obtained:
Assay in all cases: ELISA
HA of A/Japan/305+/1957 = HA of A/Japan/305+/1957 (Influenza A virus A/Japan/305/1957 …, UniProt P03451)
[1] = biological target: HA of A/Solomon Islands/03/2006 (Influenza A virus A/Solomon …, UniProt A7Y8I1, strain)
[2] = biological target: HA of A/Thailand/CU44/2006 (Influenza A virus A/Thailand/CU44/2006 …, UniProt A7LI25, strain)
HA of A/Hong Kong/1/1968 = HA of A/Hong Kong/1/1968 (influenza A virus A/Hong Kong/1/1968 …, UniProt Q91MA7)

Measured: binding result

B1: C05 WT (antibody, V domains shown)
VH: QVQLQESGGGLVQPGESLRLSCVGSGSSFGESTLSYYAVSWVRQAPGKGLEWLSIINAGGGDIDYADSVEGRFTISRDNSKETLYLQMTNLRVEDTGVYYCAKHMSMQQVVSAGWERADLVGDAFDVWGQGTMVTVSS
VL: DIQLTQSPSSLSASVGDRVTLTCQASQDIRKFLNWYQQKPGKGPKLLIYDASNLQRGVPSRFSGGGSGTDFTLIISSLQPEDVGTYYCQQYDGLPFTFGGGTKVVIK
binds: all assays above
